Source: paper PMC10806991, “Substrate promiscuity of Dicer toward precursors of the let-7 family and their 3′-end modifications”
Where a chain is given by its changes, count along the chain named.

Experiments:
[1] = target: ciDicer (catalytically inactive human Dicer) D1320A;D1709A (Homo sapiens) (UniProt Q9UPY3); test: EMSA; conditions: 5'-monophosphate; 3'-OH; EMSA: 50 mM Tris pH 7.6, 50 mM NaCl, 10% glycerol, 0.05% NP-40, 2 mM DTT, 4 °C, 30 min, 2 pM 32P-RNA; 4-15% native PAGE in …; RNA heated 95 °C and sn
ciDicer (catalytically inactive human Dicer) D1320A;D1709A (Homo sapiens), sequence (Q9UPY3 whole entry D1320A/D1709A): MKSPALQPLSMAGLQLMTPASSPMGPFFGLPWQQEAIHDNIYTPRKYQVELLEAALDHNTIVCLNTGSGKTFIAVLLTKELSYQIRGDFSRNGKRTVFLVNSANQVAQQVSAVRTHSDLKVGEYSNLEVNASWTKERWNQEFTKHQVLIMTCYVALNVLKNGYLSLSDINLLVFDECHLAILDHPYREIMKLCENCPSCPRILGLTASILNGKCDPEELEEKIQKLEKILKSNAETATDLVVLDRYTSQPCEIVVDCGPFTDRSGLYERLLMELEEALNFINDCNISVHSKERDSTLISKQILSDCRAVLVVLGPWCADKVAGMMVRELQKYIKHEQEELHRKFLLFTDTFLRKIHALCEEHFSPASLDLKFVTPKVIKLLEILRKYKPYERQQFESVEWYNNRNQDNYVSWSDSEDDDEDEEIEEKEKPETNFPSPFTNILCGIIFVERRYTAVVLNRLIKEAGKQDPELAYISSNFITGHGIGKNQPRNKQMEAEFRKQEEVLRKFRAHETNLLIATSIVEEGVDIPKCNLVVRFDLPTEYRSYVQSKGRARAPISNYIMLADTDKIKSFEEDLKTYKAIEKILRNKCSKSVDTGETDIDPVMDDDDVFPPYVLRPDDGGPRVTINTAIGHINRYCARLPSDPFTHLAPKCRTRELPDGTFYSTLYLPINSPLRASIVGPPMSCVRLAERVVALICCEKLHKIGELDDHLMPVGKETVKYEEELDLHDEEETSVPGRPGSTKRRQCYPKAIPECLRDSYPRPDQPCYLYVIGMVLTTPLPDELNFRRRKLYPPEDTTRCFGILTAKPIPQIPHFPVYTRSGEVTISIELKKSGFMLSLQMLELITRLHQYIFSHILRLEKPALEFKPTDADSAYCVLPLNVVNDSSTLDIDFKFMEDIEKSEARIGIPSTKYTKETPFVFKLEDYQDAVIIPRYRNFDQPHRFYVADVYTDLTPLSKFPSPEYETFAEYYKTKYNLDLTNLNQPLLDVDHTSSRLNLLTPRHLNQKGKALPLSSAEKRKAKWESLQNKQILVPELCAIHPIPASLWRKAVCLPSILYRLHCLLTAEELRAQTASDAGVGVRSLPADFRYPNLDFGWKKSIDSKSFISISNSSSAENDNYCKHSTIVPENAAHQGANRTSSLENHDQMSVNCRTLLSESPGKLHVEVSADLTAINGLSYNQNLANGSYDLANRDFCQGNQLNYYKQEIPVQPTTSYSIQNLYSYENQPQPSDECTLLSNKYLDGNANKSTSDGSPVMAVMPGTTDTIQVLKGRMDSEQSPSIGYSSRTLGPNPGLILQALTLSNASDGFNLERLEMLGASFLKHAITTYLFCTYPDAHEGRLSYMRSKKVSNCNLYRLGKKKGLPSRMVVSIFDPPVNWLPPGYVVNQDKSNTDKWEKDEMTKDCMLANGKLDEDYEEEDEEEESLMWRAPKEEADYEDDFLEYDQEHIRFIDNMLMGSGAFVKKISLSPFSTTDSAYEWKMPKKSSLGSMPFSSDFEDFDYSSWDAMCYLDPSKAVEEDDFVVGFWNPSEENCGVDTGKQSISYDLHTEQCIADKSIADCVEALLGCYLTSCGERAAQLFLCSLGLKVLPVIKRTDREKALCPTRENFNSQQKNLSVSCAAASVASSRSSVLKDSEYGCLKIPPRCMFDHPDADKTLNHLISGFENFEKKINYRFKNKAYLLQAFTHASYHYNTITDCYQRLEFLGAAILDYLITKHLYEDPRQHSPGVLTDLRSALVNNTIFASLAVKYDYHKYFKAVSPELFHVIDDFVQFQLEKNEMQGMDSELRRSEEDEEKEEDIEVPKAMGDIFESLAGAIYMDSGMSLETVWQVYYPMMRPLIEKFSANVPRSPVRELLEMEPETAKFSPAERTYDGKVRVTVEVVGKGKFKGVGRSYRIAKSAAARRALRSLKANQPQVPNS

[2] = target: T1, ciDicer (catalytically inactive human Dicer) (Homo sapiens, UniProt Q9UPY3 1-1922, D1320A;D1709A); test: EMSA; range over five mono-U RNAs; individual value only in figure; EMSA: 50 mM Tris pH 7.6, 50 mM NaCl, 10% glycerol, 0.05% NP-40, 2 mM DTT, 4 °C, 30 min, 2 pM 32P-RNA; 4-15% native PAGE in Tris-glycine; RNA heated 95 °C and snap-cooled; no Mg2+ added to DB buffer; conditions: protein: recombinant; label: 5'-32P; hairpin, 2-nt 3' overhang
T1 sequence (Q9UPY3 whole entry D1320A/D1709A): as above

[3] = target: T1, ciDicer (catalytically inactive human …); test: EMSA; EMSA: 50 mM Tris pH 7.6, 50 mM NaCl, 10% glycerol, 0.05% NP-40, 2 mM DTT, 4 °C, 30 min, 2 pM 32P-RNA; 4-15% native PAGE in Tris-glycine; RNA heated 95 °C and snap-cooled; no Mg2+ added to DB buffer; conditions: protein: recombinant, label: 5'-32P, hairpin

Q: pre-let-7f-1 (7f1) was tested. Which Kd [1] did it give?
A: Its Kd is 10 nM.

B1: pre-let-7g mono-U (structured_RNA)
RNA: UGAGGUAGUAGUUUGUACAGUUUGAGGGUCUAUGAUACCACCCGGUACAGGAGAUAACUGUACAGGCCACUGCCUUGCU
modifications: 5'-monophosphate; 3'-OH; one extra 3' U
Q: Which Kd [2] does the source give for B1 here?
A: The Kd was ~19 nM.

B2: pre-let-7a-3 (7a3) (structured_RNA)
RNA: UGAGGUAGUAGGUUGUAUAGUUUGGGGCUCUGCCCUGCUAUGGGAUAACUAUACAAUCUACUGUCUUUC
modifications: 5'-monophosphate; 3'-OH
Q: How did the Kd ([3]; 1-nt 3' overhang (Group II)) turn out when B2 was run?
A: The Kd was 16 ± 5 nM.

B3: pre-let-7d (7d) (structured_RNA)
RNA: AGAGGUAGUAGGUUGCAUAGUUUUAGGGCAGGGAUUUUGCCCACAAGGAGGUAACUAUACGACCUGCUGCCUUUC
modifications: 5'-monophosphate; 3'-OH
Q: With B3 as the molecule, how does the Kd ([3]; 1-nt 3' overhang (Group II)) read?
A: Its Kd is 16 ± 3 nM.

B4: pre-miR-98 (m98) (structured_RNA)
RNA: UGAGGUAGUAAGUUGUAUUGUUGUGGGGUAGGGAUAUUAGGCCCCAAUUAGAAGAUAACUAUACAACUUACUACUUUCC
modifications: 5'-monophosphate; 3'-OH
Q: With B4 as the molecule, how does the Kd ([3]; 1-nt 3' overhang (Group II)) read?
A: The Kd was 12 ± 7 nM.

B5: pre-miR-98 mono-U (structured_RNA)
RNA: UGAGGUAGUAAGUUGUAUUGUUGUGGGGUAGGGAUAUUAGGCCCCAAUUAGAAGAUAACUAUACAACUUACUACUUUCCU
modifications: 5'-monophosphate; 3'-OH; one extra 3' U
Q: For B5, which Kd [2] is on record?
A: The Kd was ~19 nM.

B6: pre-let-7b mono-U (structured_RNA)
RNA: UGAGGUAGUAGGUUGUGUGGUUUCAGGGCAGUGAUGUUGCCCCUCGGAAGAUAACUAUACAACCUACUGCCUUCCU
modifications: 5'-monophosphate; 3'-OH; one extra 3' U
Q: With B6 as the molecule, how does the Kd [2] read?
A: Its Kd is ~19 nM.

B7: pre-let-7a-1 (7a1) (structured_RNA)
RNA: UGAGGUAGUAGGUUGUAUAGUUUUAGGGUCACACCCACCACUGGGAGAUAACUAUACAAUCUACUGUCUUUC
modifications: 5'-monophosphate; 3'-OH
Q: How did the Kd ([3]; 1-nt 3' overhang (Group II)) turn out when B7 was run?
A: The Kd was 14 ± 3 nM.

B8: pre-let-7e (7e) (structured_RNA)
RNA: UGAGGUAGGAGGUUGUAUAGUUGAGGAGGACACCCAAGGAGAUCACUAUACGGCCUCCUAGCUUUCC
modifications: 5'-monophosphate; 3'-OH
Q: With B8 as the molecule, how does the Kd ([3]; 2-nt 3' overhang (Group I)) read?
A: Its Kd is 12 ± 2 nM.

B9: pre-let-7f-2 (7f2) (structured_RNA)
RNA: UGAGGUAGUAGAUUGUAUAGUUUUAGGGUCAUACCCCAUCUUGGAGAUAACUAUACAGUCUACUGUCUUUC
modifications: 5'-monophosphate; 3'-OH
Q: Which Kd ([3]; 1-nt 3' overhang (Group II)) does the source give for B9 here?
A: The Kd was 17 ± 4 nM.

B10: pre-let-7d mono-U (structured_RNA)
RNA: AGAGGUAGUAGGUUGCAUAGUUUUAGGGCAGGGAUUUUGCCCACAAGGAGGUAACUAUACGACCUGCUGCCUUUCU
modifications: 5'-monophosphate; 3'-OH; one extra 3' U
Q: Which Kd [2] does the source give for B10 here?
A: Its Kd is ~19 nM.

B11: pre-let-7a-1 mono-U (structured_RNA)
RNA: UGAGGUAGUAGGUUGUAUAGUUUUAGGGUCACACCCACCACUGGGAGAUAACUAUACAAUCUACUGUCUUUCU
modifications: 5'-monophosphate; 3'-OH; one extra 3' U
Q: B11 was tested. Which Kd [2] did it give?
A: The Kd was ~19 nM.

B12: pre-miR-202 (m202) (structured_RNA)
RNA: UUCCUAUGCAUAUACUUCUUUGAGGAUCUGGCCUAAAGAGGUAUAGGGCAUGGGAAAA
modifications: 5'-monophosphate; 3'-OH
Q: For B12, which Kd ([3]; 14-nt apical loop, 2-nt 3' overhang (Group I)) is on record?
A: The Kd was 7 ± 2 nM.

B13: pre-let-7b (7b) (structured_RNA)
RNA: UGAGGUAGUAGGUUGUGUGGUUUCAGGGCAGUGAUGUUGCCCCUCGGAAGAUAACUAUACAACCUACUGCCUUCC
modifications: 5'-monophosphate; 3'-OH
Q: For B13, which Kd ([3]; 1-nt 3' overhang (Group II)) is on record?
A: The Kd was 13 ± 1 nM.

B14: pre-let-7i (7i) (structured_RNA)
RNA: UGAGGUAGUAGUUUGUGCUGUUGGUCGGGUUGUGACAUUGCCCGCUGUGGAGAUAACUGCGCAAGCUACUGCCUUGC
modifications: 5'-monophosphate; 3'-OH
Q: Which Kd ([3]; 1-nt 3' overhang (Group II)) does the source give for B14 here?
A: The Kd was 17 ± 5 nM.

B15: pre-let-7a-2 (7a2) (structured_RNA)
RNA: UGAGGUAGUAGGUUGUAUAGUUUAGAAUUACAUCAAGGGAGAUAACUGUACAGCCUCCUAGCUUUCC
modifications: 5'-monophosphate; 3'-OH
Q: For B15, which Kd ([3]; 2-nt 3' overhang (Group I)) is on record?
A: Its Kd is 12 ± 5 nM.

B16: pre-let-7c (7c) (structured_RNA)
RNA: B15 RNA with A19G, A27G, U33C, A35C, A36U, A42U, G53A, C57U
modifications: 5'-monophosphate; 3'-OH
Q: For B16, which Kd ([3]; 2-nt 3' overhang (Group I)) is on record?
A: Its Kd is 13 ± 4 nM.

B17: pre-let-7g (7g) (structured_RNA)
RNA: UGAGGUAGUAGUUUGUACAGUUUGAGGGUCUAUGAUACCACCCGGUACAGGAGAUAACUGUACAGGCCACUGCCUUGC
modifications: 5'-monophosphate; 3'-OH
Q: Which Kd ([3]; 1-nt 3' overhang (Group II)) does the source give for B17 here?
A: The Kd was 12 ± 2 nM.
